From the Human Domainome abundance scans (Beltran et al. 2025)
± gives the uncertainty stated by the source.

Test: abundance fitness (aPCA) (normalised: wild type 0, dead -1); higher = more abundant; growth selection in yeast, the domain comes from the species named
Settings: Homo sapiens

Q: With “Transcriptional activator Myb T145L, P10242” as the substance, how does the abundance fitness read?
A: -0.122 ± 0.13

Q: For “Transcriptional activator Myb T145M, P10242”, which abundance fitness is on record?
A: 0.117 ± 0.12

Q: For “Transcriptional activator Myb T145N, P10242”, which abundance fitness is on record?
A: -0.179 ± 0.26

Q: For “Transcriptional activator Myb T145P, P10242”, which abundance fitness is on record?
A: -0.212 ± 0.12

Q: With “Transcriptional activator Myb T145Q, P10242” as the substance, how does the abundance fitness read?
A: -0.171 ± 0.15

Q: For “Transcriptional activator Myb T145R, P10242”, which abundance fitness is on record?
A: -0.232 ± 0.071

Q: Which abundance fitness does the source give for “Transcriptional activator Myb T145S, P10242” here?
A: -0.042 ± 0.077

Q: Which abundance fitness does the source give for “Transcriptional activator Myb T145V, P10242” here?
A: -0.007 ± 0.068

Q: Which abundance fitness does the source give for “Transcriptional activator Myb T145W, P10242” here?
A: -0.318 ± 0.1

Q: Which abundance fitness does the source give for “Transcriptional activator Myb T145Y, P10242” here?
A: -0.114 ± 0.23

Q: With “Transcriptional activator Myb T148A, P10242” as the substance, how does the abundance fitness read?
A: -0.286 ± 0.039

Q: Which abundance fitness does the source give for “Transcriptional activator Myb T148D, P10242” here?
A: -0.348 ± 0.043

Q: Which abundance fitness does the source give for “Transcriptional activator Myb T148E, P10242” here?
A: -0.443 ± 0.065

Q: For “Transcriptional activator Myb T148F, P10242”, which abundance fitness is on record?
A: -0.726 ± 0.046

Q: Which abundance fitness does the source give for “Transcriptional activator Myb T148G, P10242” here?
A: -0.31 ± 0.038

Q: Which abundance fitness does the source give for “Transcriptional activator Myb T148H, P10242” here?
A: -0.556 ± 0.045

Q: Which abundance fitness does the source give for “Transcriptional activator Myb T148K, P10242” here?
A: -0.212 ± 0.057

Q: With “Transcriptional activator Myb T148L, P10242” as the substance, how does the abundance fitness read?
A: -0.505 ± 0.036

Q: Which abundance fitness does the source give for “Transcriptional activator Myb T148M, P10242” here?
A: -0.462 ± 0.052

Q: For “Transcriptional activator Myb T148N, P10242”, which abundance fitness is on record?
A: -0.271 ± 0.043

Q: With “Transcriptional activator Myb T148P, P10242” as the substance, how does the abundance fitness read?
A: -0.597 ± 0.045

Q: For “Transcriptional activator Myb T148Q, P10242”, which abundance fitness is on record?
A: -0.437 ± 0.055

Q: With “Transcriptional activator Myb T148R, P10242” as the substance, how does the abundance fitness read?
A: -0.307 ± 0.035

Q: Which abundance fitness does the source give for “Transcriptional activator Myb T148S, P10242” here?
A: -0.004 ± 0.034

Q: For “Transcriptional activator Myb T148W, P10242”, which abundance fitness is on record?
A: -0.901 ± 0.058

Q: With “Transcriptional activator Myb T148Y, P10242” as the substance, how does the abundance fitness read?
A: -0.766 ± 0.05

Q: Which abundance fitness does the source give for “Transcriptional activator Myb T177A, P10242” here?
A: -0.137 ± 0.063

Q: With “Transcriptional activator Myb T177C, P10242” as the substance, how does the abundance fitness read?
A: -0.138 ± 0.075

Q: With “Transcriptional activator Myb T177D, P10242” as the substance, how does the abundance fitness read?
A: 0.077 ± 0.095

Q: For “Transcriptional activator Myb T177E, P10242”, which abundance fitness is on record?
A: -0.013 ± 0.069

Q: For “Transcriptional activator Myb T177F, P10242”, which abundance fitness is on record?
A: -0.79 ± 0.18

Q: Which abundance fitness does the source give for “Transcriptional activator Myb T177G, P10242” here?
A: -0.12 ± 0.043

Q: With “Transcriptional activator Myb T177I, P10242” as the substance, how does the abundance fitness read?
A: -0.477 ± 0.093

Q: Which abundance fitness does the source give for “Transcriptional activator Myb T177K, P10242” here?
A: -0.204 ± 0.092

Q: For “Transcriptional activator Myb T177L, P10242”, which abundance fitness is on record?
A: -0.42 ± 0.068

Q: Which abundance fitness does the source give for “Transcriptional activator Myb T177M, P10242” here?
A: -0.44 ± 0.093

Q: With “Transcriptional activator Myb T177N, P10242” as the substance, how does the abundance fitness read?
A: -0.038 ± 0.12

Q: For “Transcriptional activator Myb T177Q, P10242”, which abundance fitness is on record?
A: -0.183 ± 0.084

Q: Which abundance fitness does the source give for “Transcriptional activator Myb T177R, P10242” here?
A: -0.267 ± 0.047

Q: For “Transcriptional activator Myb T177S, P10242”, which abundance fitness is on record?
A: -0.003 ± 0.066

Q: Which abundance fitness does the source give for “Transcriptional activator Myb T177V, P10242” here?
A: -0.371 ± 0.062

Q: For “Transcriptional activator Myb T177W, P10242”, which abundance fitness is on record?
A: -0.533 ± 0.073

Q: Which abundance fitness does the source give for “Transcriptional activator Myb T177Y, P10242” here?
A: -0.558 ± 0.17

Q: With “Transcriptional activator Myb T188A, P10242” as the substance, how does the abundance fitness read?
A: -0.107 ± 0.046

Q: For “Transcriptional activator Myb T188C, P10242”, which abundance fitness is on record?
A: -0.037 ± 0.088

Q: For “Transcriptional activator Myb T188D, P10242”, which abundance fitness is on record?
A: -0.015 ± 0.057

Q: For “Transcriptional activator Myb T188E, P10242”, which abundance fitness is on record?
A: 0.016 ± 0.056

Q: With “Transcriptional activator Myb T188F, P10242” as the substance, how does the abundance fitness read?
A: -0.214 ± 0.14

Q: With “Transcriptional activator Myb T188G, P10242” as the substance, how does the abundance fitness read?
A: -0.058 ± 0.032

Q: Which abundance fitness does the source give for “Transcriptional activator Myb T188H, P10242” here?
A: -0.093 ± 0.1

Q: For “Transcriptional activator Myb T188I, P10242”, which abundance fitness is on record?
A: 0.001 ± 0.092

Q: For “Transcriptional activator Myb T188K, P10242”, which abundance fitness is on record?
A: -0.115 ± 0.061

Q: With “Transcriptional activator Myb T188L, P10242” as the substance, how does the abundance fitness read?
A: -0.049 ± 0.053

Q: With “Transcriptional activator Myb T188M, P10242” as the substance, how does the abundance fitness read?
A: 0.035 ± 0.08

Q: For “Transcriptional activator Myb T188N, P10242”, which abundance fitness is on record?
A: -0.204 ± 0.11

Q: With “Transcriptional activator Myb T188P, P10242” as the substance, how does the abundance fitness read?
A: -0.268 ± 0.099

Q: Which abundance fitness does the source give for “Transcriptional activator Myb T188Q, P10242” here?
A: -0.089 ± 0.078

Q: Which abundance fitness does the source give for “Transcriptional activator Myb T188R, P10242” here?
A: -0.166 ± 0.04

Q: For “Transcriptional activator Myb T188S, P10242”, which abundance fitness is on record?
A: -0.048 ± 0.053

Q: With “Transcriptional activator Myb T188V, P10242” as the substance, how does the abundance fitness read?
A: -0.012 ± 0.044

Q: Which abundance fitness does the source give for “Transcriptional activator Myb T188W, P10242” here?
A: -0.093 ± 0.054

Q: For “Transcriptional activator Myb T188Y, P10242”, which abundance fitness is on record?
A: 0.034 ± 0.13

Q: With “Transcriptional activator Myb V193A, P10242” as the substance, how does the abundance fitness read?
A: -0.074 ± 0.069

Q: Which abundance fitness does the source give for “Transcriptional activator Myb V193C, P10242” here?
A: -0.138 ± 0.15

Q: For “Transcriptional activator Myb V193D, P10242”, which abundance fitness is on record?
A: -0.166 ± 0.087

Q: For “Transcriptional activator Myb V193E, P10242”, which abundance fitness is on record?
A: -0.138 ± 0.079

Q: Which abundance fitness does the source give for “Transcriptional activator Myb V193F, P10242” here?
A: -0.091 ± 0.21

Q: With “Transcriptional activator Myb V193G, P10242” as the substance, how does the abundance fitness read?
A: -0.041 ± 0.051

Q: Which abundance fitness does the source give for “Transcriptional activator Myb V193H, P10242” here?
A: -0.033 ± 0.13

Q: For “Transcriptional activator Myb V193I, P10242”, which abundance fitness is on record?
A: -0.066 ± 0.1

Q: Which abundance fitness does the source give for “Transcriptional activator Myb V193K, P10242” here?
A: -0.154 ± 0.14

Q: With “Transcriptional activator Myb V193L, P10242” as the substance, how does the abundance fitness read?
A: -0.089 ± 0.089

Q: Which abundance fitness does the source give for “Transcriptional activator Myb V193N, P10242” here?
A: -0.032 ± 0.26

Q: For “Transcriptional activator Myb V193P, P10242”, which abundance fitness is on record?
A: -0.198 ± 0.14

Q: For “Transcriptional activator Myb V193Q, P10242”, which abundance fitness is on record?
A: -0.14 ± 0.16

Q: With “Transcriptional activator Myb V193R, P10242” as the substance, how does the abundance fitness read?
A: -0.084 ± 0.059

Q: With “Transcriptional activator Myb V193S, P10242” as the substance, how does the abundance fitness read?
A: -0.11 ± 0.066

Q: With “Transcriptional activator Myb V193T, P10242” as the substance, how does the abundance fitness read?
A: -0.018 ± 0.11
